Reference: publication PMC9709061, “HSP90-CDC37-PP5 forms a structural platform for kinase dephosphorylation” (Nature Communications, 2022)

How the values were obtained:
HSP90β = target: T1, HSP90β (human, UniProt P08238 1-724, phosphorylation at Ser226 and Ser255 found by mass spectrometry); experiment: cryo-EM structure; HSP90–CDC37–BRAF^V600E complex incubated with PP5 D274N, purified by SEC, cross-linked with 1 mM BS3; one sample gave three classes: HCK (3.4 Å), HCK-P open (4.2 Å), HCK-P closed (3.9 Å); PP5 modelled by rigid-body docking; details: both partners purified
T1 construct: human HSP90β, full length; A 3C protease site lies between protein and tag; no cleavage step is described; Captured on Talon resin during the co-purification; source: co-purified (Talon, Streptactin, Superdex S200); not shown: His8, N-terminal, kept

BRAF^V600E = target: T2, BRAF^V600E (human, UniProt P15056 1-766, V600E, phosphorylated as purified: Ser151, Ser339, Ser365, Thr401, Ser429, Ser432, Ser446, Ser614, Ser675, Ser729, Ser750, Thr753 (mass spectrometry; pSer729 also by western blot)); experiment: as above; details: both partners purified
T2 construct: human BRAF, full length (84 kDa), oncogenic V600E mutant; A 3C site lies between protein and tag; no cleavage step is described; also called kinase client; not shown: 2xStrep, N-terminal, kept
T2 sequence (P15056 whole entry V600E): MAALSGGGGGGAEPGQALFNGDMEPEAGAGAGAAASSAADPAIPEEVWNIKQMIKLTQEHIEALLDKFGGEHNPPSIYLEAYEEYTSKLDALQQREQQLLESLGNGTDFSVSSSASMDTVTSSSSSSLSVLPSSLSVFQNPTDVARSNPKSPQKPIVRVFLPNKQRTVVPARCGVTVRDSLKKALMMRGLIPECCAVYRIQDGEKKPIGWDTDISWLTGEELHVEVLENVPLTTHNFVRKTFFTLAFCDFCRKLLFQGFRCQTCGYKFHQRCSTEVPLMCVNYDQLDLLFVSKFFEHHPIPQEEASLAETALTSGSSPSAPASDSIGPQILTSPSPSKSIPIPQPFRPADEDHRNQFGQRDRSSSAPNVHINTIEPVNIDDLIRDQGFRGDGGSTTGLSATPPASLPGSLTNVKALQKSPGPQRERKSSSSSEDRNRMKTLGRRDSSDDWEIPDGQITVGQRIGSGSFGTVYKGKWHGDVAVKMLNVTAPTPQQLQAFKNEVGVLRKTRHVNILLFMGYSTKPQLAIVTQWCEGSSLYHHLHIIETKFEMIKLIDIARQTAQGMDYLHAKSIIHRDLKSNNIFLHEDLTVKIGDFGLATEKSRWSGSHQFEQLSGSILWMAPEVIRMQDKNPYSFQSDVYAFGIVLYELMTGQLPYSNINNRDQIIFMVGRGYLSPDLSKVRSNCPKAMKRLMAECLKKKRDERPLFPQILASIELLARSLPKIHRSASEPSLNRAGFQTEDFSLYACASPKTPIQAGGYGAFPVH

T1 sequence (P08238 whole entry): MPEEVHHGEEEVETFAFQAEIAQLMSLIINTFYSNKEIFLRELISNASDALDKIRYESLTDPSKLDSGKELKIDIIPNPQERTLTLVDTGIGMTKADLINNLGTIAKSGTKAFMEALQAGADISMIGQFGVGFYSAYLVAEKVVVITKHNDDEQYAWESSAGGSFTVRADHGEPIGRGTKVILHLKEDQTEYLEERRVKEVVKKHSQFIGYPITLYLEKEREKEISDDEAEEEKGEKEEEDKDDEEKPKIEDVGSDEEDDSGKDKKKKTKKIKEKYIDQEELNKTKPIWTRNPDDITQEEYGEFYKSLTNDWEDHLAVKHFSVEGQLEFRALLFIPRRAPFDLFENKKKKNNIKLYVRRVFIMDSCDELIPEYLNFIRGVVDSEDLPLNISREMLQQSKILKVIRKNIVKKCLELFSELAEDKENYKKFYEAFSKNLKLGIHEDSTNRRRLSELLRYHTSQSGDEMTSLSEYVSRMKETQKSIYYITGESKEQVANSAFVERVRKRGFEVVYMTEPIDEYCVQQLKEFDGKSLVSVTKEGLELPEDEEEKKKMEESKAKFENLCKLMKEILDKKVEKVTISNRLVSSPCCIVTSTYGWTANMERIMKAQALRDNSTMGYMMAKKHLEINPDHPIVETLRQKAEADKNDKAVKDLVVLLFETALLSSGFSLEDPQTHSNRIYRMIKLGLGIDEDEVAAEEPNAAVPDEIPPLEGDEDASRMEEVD

- binding result (HSP90β): binds
- binding result (BRAF^V600E): binds
B1: PP5 D274N (enzyme, human, UniProt P53041 16-499, looked up)
chain: RDEPPADGALKRAEELKTQANDYFKAKDYENAIKFYSQAIELNPSNAIYYGNRSLAYLRTECYGYALGDATRAIELDKKYIKGYYRRAASNMALGKFRAALRDYETVVKVKPHDKDAKMKYQECNKIVKQKAFERAIAGDEHKRSVVDSLDIESMTIEDEYSGPKLEDGKVTISFMKELMQWYKDQKKLHRKCAYQILVQVKEVLSKLSTLVETTLKETEKITVCGDTHGQFYDLLNIFELNGLPSETNPYIFNGDFVNRGSFSVEVILTLFGFKLLYPDHFHLLRGNHETDNMNQIYGFEGEVKAKYTAQMYELFSEVFEWLPLAQCINGKVLIMHGGLFSEDGVTLDDIRKIERNRQPPDSGPMCDLLWSDPQPQNGRSISKRGVSCQFGPDVTKAFLEENNLDYIIRSHEVKAEGYEVAHGGRCVTVFSAPNYCDQMGNKASYIHLQGSDLRPQFHQFTAVPHPNVKPMAYANTLLQLGMM
notes: human PP5 (serine/threonine protein phosphatase 5), residues 16-499, D274N; also called catalytically dead PP5
